Test results as given in US20240218071A1 (ANHUI BIOX VISION BIOLOGICAL TECHNOLOGY, published 2024).
Where a chain is given by its changes, count along the chain named.

B1: C8 clone anti-CD40 full-length antibody (antibody, human IgG1, kappa, V domains shown)
VH: EVQLLESGGGLVRPGGSLRLSCAASGFTFGSYEMNWVRQAPGKGLEWVSYISSSGETTDYADSVKGRFTVSRDNSKNLLYLQMNSLRAEDTAVYYCARDVFFFDSSGDNGAYGMDVWGQGTMVTVSS
VL: DIQLTQSPSSLTASVGDRVTITCRSSQGIRSSLAWYQQKPGKPPKLLIYGASSLEGGVPSRFSGSGSGTDFTLTISSLQPEDFATYYCQQLNSFPSTFGQGTKLEIKR
notes: also called C8-WT; C8 parent antibody
B2: Dacetuzumab (antibody, V domains shown)
VH: EVQLVESGGGLVQPGGSLRLSCAASGYSFTGYYIHWVRQAPGKGLEWVARVIPNAGGTSYNQKFKGRFTLSVDNSKNTAYLQMNSLRAEDTAVYYCAREGIYWWGQGTLVTVSS
VL: DIQMTQSPSSLSASVGDRVTITCRSSQSLVHSNGNTFLHWYQQKPGKAPKLLIYTVSNRFSGVPSRFSGSGSGTDFTLTISSLQPEDFATYFCSQTTHVPWTFGQGTKVEIKR
B3: APX005M (antibody, V domains shown)
VH: QVQLVESGGGVVQPGRSLRLSCAASGFSFSSTYVCWVRQAPGKGLEWIACIYTGDGTNYSASWAKGRFTISKDSSKNTVYLQMNSLRAEDTAVYFCARPDITYGFAINFWGPGTLVTVSS
VL: DIQMTQSPSSLSASVGDRVTIKCQASQSISSRLAWYQQKPGKPPKLLIYRASTLASGVPSRFSGSGSGTDFTLTISSLQPEDVATYYCQCTGYGISWPIGGGTKVEIK
B4: C8-2 antibody (antibody, V domains shown)
VH: B1 VH with D104S, S105P
VL: DIQLTQSPSSLTASVGDRVTITCRSSQGIRSSLAWYQQKPGKPPKLLIYGASSLEGGVPSRFSGSGSGTDFTLTISSLQPEDFATYYCQQLNSFPSTFGQGTKLEIK
B5: C8-4 antibody (antibody, V domains shown)
VH: B1 VH with D108P, N109R
VL: B4 VL
B6: C8-5 antibody (antibody, V domains shown)
VH: B1 VH with N35D, G66P
VL: B4 VL with A51G
B7: C8-3 antibody (antibody, V domains shown)
VH: B1 VH with F29A
VL: B4 VL with G56V
B8: C8-6 antibody (antibody, V domains shown)
VH: B1 VH with D108S, N109P
VL: B4 VL
B9: C8-1 antibody (antibody, V domains shown)
VH: B1 VH
VL: B4 VL with N92A
B10: C8-8 antibody (antibody, V domains shown)
VH: B1 VH with D108P, N109P
VL: B4 VL
B11: C8-10 antibody (antibody, V domains shown)
VH: B1 VH with D108F, N109P
VL: B4 VL
B12: C8-9 antibody (antibody, V domains shown)
VH: B1 VH with G107R, D108P
VL: B4 VL
B13: C8-11 antibody (antibody, V domains shown)
VH: B1 VH with F29P, S54A
VL: B4 VL with E55L
B14: C8-7 antibody (antibody, V domains shown)
VH: B1 VH with G110H
VL: B4 VL

What follows are binders tested against T1, human CD40 expressed on the cell surface (human, UniProt P25942 21-277) (assay: flow cytometry on CHO-K-huCD40 cells, APC anti-human IgG Fc secondary antibody).
T1 construct: whole, on cells; Used for transfected CHO-K cells, for transfected Jurkat reporter cells (Met1-Gln277) and for the natural CD40 on Ramos cells and iDC; also called CHO-K-huCD40 cells; CHO cells expressing CD40
T1 sequence (P25942 21-277): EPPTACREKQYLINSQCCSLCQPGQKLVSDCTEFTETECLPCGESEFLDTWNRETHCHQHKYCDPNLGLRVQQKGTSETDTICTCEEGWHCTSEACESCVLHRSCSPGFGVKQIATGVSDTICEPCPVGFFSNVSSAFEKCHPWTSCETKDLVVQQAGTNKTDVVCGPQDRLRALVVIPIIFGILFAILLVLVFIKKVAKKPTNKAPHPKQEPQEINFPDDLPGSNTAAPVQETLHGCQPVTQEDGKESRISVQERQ
Description: (§1) To confirm the binding activity and cross-reactivity of the full-length anti-CD40 antibody prepared in example 1.4 of the present invention to CD40, CHO-K-huCD40 cells or CHO-K-cynoCD40 cells were seeded into a 96-well plate at 1.0×10⁵ cells/well. 100 μL of diluted anti-CD40 candidate antibody prepared in example 1.4 was added to the 96-well plate. […] Then, the cells were washed, and the binding of the full-length anti-CD40 antibody to CD40 molecules expressed on the cell was detected by flow cytometry.

Row | Binder | EC50 (read off the curve)
1 | B1 | ~0.8 µg/mL
2 | B2 | ~0.8 µg/mL

What follows are binders tested against T1, human CD40 expressed on the cell surface (assay: flow cytometry on CHO-K-huCD40 cells, APC anti-human IgG secondary antibody).
Description: (§2) 100 μL of diluted anti-CD40 candidate antibody prepared in example 4.3 was added to the 96-well plate. After incubation at 4° C. for 30 min, the cells were washed 5 times with a FACS buffer (PBS+5% FBS+2% BSA), added with 100 μL of APC-labeled anti-human IgG secondary antibody, and then incubated at 4° C. for 30 min. The cells were then washed and tested by flow cytometry.

Row | Binder | EC50 (read off the curve)
3 | B3 | ~0.7 µg/mL
4 | B1 | ~0.8 µg/mL
5 | B4 | ~0.8 µg/mL
6 | B5 | ~0.8 µg/mL
7 | B6 | ~0.8 µg/mL
8 | B7 | ~0.8 µg/mL
9 | B8 | ~0.8 µg/mL
10 | B9 | ~0.8 µg/mL

What follows are binders tested against T2, cynomolgus monkey CD40 expressed on the cell surface (cynomolgus monkey, UniProt G7PG38 21-278) (assay: flow cytometry on CHO-K-cynoCD40 cells, APC anti-human IgG Fc secondary antibody).
T2 construct: also called CHO-K-cynoCD40 cells
T2 sequence (G7PG38 entry or part of it limits assumed): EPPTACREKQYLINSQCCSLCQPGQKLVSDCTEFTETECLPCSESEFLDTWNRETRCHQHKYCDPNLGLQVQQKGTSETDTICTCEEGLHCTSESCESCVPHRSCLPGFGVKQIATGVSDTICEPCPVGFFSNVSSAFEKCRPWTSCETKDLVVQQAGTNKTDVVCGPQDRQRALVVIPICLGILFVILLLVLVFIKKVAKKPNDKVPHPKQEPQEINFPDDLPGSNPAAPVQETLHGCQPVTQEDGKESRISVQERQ
Description: as §1

Row | Binder | binding result
11 | B1 | binds

Molecular target: T1, human CD40 expressed on the cell surface
Test: flow cytometry on CHO-K-huCD40 cells, APC anti-human IgG secondary antibody
Remark: another data set of the same source
Description: as §2

Row | Binder | EC50 (read off the curve)
12 | B3 | ~0.8 µg/mL
13 | B10 | ~0.7 µg/mL
14 | B1 | ~0.9 µg/mL
15 | B11 | ~0.9 µg/mL
16 | B12 | ~0.9 µg/mL
17 | B13 | ~2 µg/mL
18 | B14 | ~0.9 µg/mL

Each binder was assayed against T3, P17-His protein (human CD40 antigen) (human, UniProt P25942 21-193, limits assumed) (assay: BLI (Fortebio Octet RED96), antibody on Protein A sensor, P17-His 5-40 nM).
T3 construct: also called human CD40 antigen (P17-His)
T3 sequence (P25942 other isoform, or with tags, fused parts or gaps limits assumed): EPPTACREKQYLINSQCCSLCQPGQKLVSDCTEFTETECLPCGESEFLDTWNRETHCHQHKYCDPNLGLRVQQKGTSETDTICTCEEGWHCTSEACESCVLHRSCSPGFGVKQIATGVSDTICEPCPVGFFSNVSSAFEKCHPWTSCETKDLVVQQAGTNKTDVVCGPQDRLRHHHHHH
Description: In this example, the affinity of C8 parent antibody (C8-WT) and affinity variant antibody for human CD40 antigen (P17-His) was detected using an Fortebio Octet RED96 instrument.
Material preparation: 1 g of BSA and 500 μL of Tween 20 were added to 1000 mL of 1×PBS and mixed uniformly. The mixture was filtered, and then subpackaged and stored. 0.1 mL of glycine solution (0.1 M, pH 2.0) was pipetted, 0.9 mL of ultrapure water was added, and the mixture was mixed uniformly. The antibodies were diluted to 10 μg/mL with a KB buffer, and the antigens were diluted with a KB buffer to serial concentration gradients, i.e., 40 nM, 20 nM, 10 nM, 5 nM and 0 nM.
Experiment procedure: The sample plate (GreinierBio, PN655209) was tested after a sensor (Protein A sensor) was pre-wetted in the dark for at least 10 min, and after confirming the accuracy, the test was performed according to the preset programs. KB buffer was added at 200 μL/well to the wells of columns 1, 10 and 12 of sample plate 1; the glycine solution (0.01 M, pH 2.0) was added to the wells of column 11; the prepared sample solution was added to the wells of columns 2-8 (5 replicate wells for one sample); and P17-His was sequentially added to the wells of column 9 in a descending order of the concentration.

Row | Binder | Kd | koff | kon
19 | B3 | 6.3 nM | 0.0124 s⁻¹ | 1.98e+06 M⁻¹ s⁻¹
20 | B10 | 10.3 nM | 0.011 s⁻¹ | 1.07e+06 M⁻¹ s⁻¹
21 | B1 | 19.3 nM | 0.0164 s⁻¹ | 853000 M⁻¹ s⁻¹
22 | B11 | 6.82 nM | 0.00847 s⁻¹ | 1.24e+06 M⁻¹ s⁻¹
23 | B4 | 11.9 nM | 0.0111 s⁻¹ | 932000 M⁻¹ s⁻¹
24 | B12 | 9.27 nM | 0.0112 s⁻¹ | 1.21e+06 M⁻¹ s⁻¹
25 | B5 | 5.34 nM | 0.00725 s⁻¹ | 1.36e+06 M⁻¹ s⁻¹
26 | B6 | 8.23 nM | 0.00818 s⁻¹ | 994000 M⁻¹ s⁻¹
27 | B13 | 9.24 nM | 0.0148 s⁻¹ | 1.6e+06 M⁻¹ s⁻¹
28 | B7 | 4.51 nM | 0.0111 s⁻¹ | 2.46e+06 M⁻¹ s⁻¹
29 | B8 | 9.04 nM | 0.00984 s⁻¹ | 1.09e+06 M⁻¹ s⁻¹
30 | B9 | 12.7 nM | 0.0148 s⁻¹ | 1.16e+06 M⁻¹ s⁻¹
31 | B14 | 12.4 nM | 0.0111 s⁻¹ | 895000 M⁻¹ s⁻¹

The binders below were run against T4, full-length mouse CD40 expressed on CHO-K cells (mouse, UniProt P27512 20-289) (assay: flow cytometry on CHO-K-mouseCD40 cells, FITC anti-human IgG Fc secondary antibody).
T4 construct: whole, on cells; also called CHO-K-mouseCD40 cells; mouse CD40 antigen
T4 sequence (P27512 20-289): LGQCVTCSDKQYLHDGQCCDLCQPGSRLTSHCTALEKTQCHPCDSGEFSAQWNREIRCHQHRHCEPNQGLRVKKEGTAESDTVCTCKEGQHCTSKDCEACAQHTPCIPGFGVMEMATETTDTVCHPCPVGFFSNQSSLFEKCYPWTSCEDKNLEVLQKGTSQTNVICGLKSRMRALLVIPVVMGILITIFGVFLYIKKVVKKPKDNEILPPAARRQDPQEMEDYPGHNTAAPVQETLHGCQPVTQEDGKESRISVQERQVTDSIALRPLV
Description: Similarly to example 1.3, CHO-K cells expressing full-length mouse CD40 (Uniprot: P27512) (hereinafter also referred to as “CHO-K-mouseCD40 cells”) were prepared. The cross-reactivity of the candidate C8 full-length anti-CD40 antibody prepared in example 1.4 to mouse CD40 was tested using the CHO-K-mouseCD40 cells. The CHO-K-mouseCD40 cells were seeded into a 96-well plate at 1.0×10⁵ cells/well. 100 μL of diluted anti-CD40 candidate antibody and two control antibodies (Dacetuzumab and APX005) were added to the 96-well plate, respectively. […] The cells were then washed and tested by flow cytometry.

Row | Binder | binding result
32 | B1 | binds

Molecular target: T4, full-length mouse CD40 expressed on …
Test: as above
Remark: another data set of the same source
Description: The cross-reactivity of the affinity variant candidate antibody prepared in example 4.3 to mouse CD40 was tested using artificially constructed CHO-K cells expressing full-length mouse CD40 (Uniprot #P27512) (CHO-K-mouseCD40 cells). The CHO-K cells expressing mouse CD40 were seeded into a 96-well plate at 1.0×10⁵ cells/well. 100 μL of diluted affinity variant candidate antibody and the control antibody (APX005) were added to the 96-well plate, respectively. […] The cells were then washed and tested by flow cytometry.

Row | Binder | binding result
33 | B10 | binds
34 | B11 | binds
35 | B4 | binds
36 | B12 | binds
37 | B5 | no binding (tested: 20 µg/mL)
38 | B6 | no binding (tested: 20 µg/mL)
39 | B13 | binds
40 | B7 | no binding (tested: 20 µg/mL)
41 | B8 | binds
42 | B9 | binds
43 | B14 | binds

What follows are binders tested against T1, human CD40 expressed on the cell surface (assay: cell-based or functional assay).

Row | Binder | CD95 expression on Ramos cells without crosslinking agent (FACS)
44 | B11 | ~10 times weaker than APX005
45 | B4 | ~10 times weaker than APX005
46 | B12 | ~10 times weaker than APX005
47 | B13 | ~10 times weaker than APX005
48 | B8 | ~10 times weaker than APX005
